{"source": "a protein production outcome set (Wang et al. 2014)", "assay": "label from the status in PepcDB records"}
{"sequence": "MGNIGSPPKFDEYPNGNEEPRRVLRLNVYFDNPVQNKDGAYDDRGGFWAPVDWWHRDAERWATLFAKGMRVAVRGHLERDDWTDGDGEPHTTYKVDARSVGILPYRLDAVHLSPLEHHHHHH", "values": [{"measurement": "protein production", "value": "failed"}]}
{"sequence": "MGNKITVEVTVYAAIEKVWKYWNEPAHIMKWCQASPEWHVPAAQNDLKAGGTFTTTMAAKDGSMSFDFGGVYDQVKTNDLIEYTIGDGRKVRIVFTHTGDTTNIVESFDPEETNPRELQQSGWQAILNSFKSYTENNLEHHHHHH", "values": [{"measurement": "protein production", "value": "not failed"}]}
{"sequence": "MGNNFAQLKRLINFFRTVILPARISQLILQTFLKWQKDNCMDMGAALAYYALFSLFPICLVMLSIAGRLLGADSNYYLQLISFAQNILPEQPFKVFQQALTNLNQSSFSAGLIGFGILVLTASRIFDALNQSVKKIWSVVHQPKENIGVKHHAFNFIRNKILAFLLVLSTVMVFLLSIFANLAAKIFLTVLAEFGQSIPWVTFDSLGLITTLQTSISYFLITVVIITLFKVLPPVRLQWWDIFPGAILTAATMMALQNAVGSGIIRIGENLQAYGVVGNVMVLLLWIYLIFQVFFIGCEFTFVFTYIFGSRHQKEKPF", "values": [{"measurement": "protein production", "value": "failed"}]}
{"sequence": "MGPDGPPCEISTWKHNSMKQIALSLFVIAASGAYVWDQAGKNPANDMLGEALPADAAEAPTVQPKEPASAAALPVLRTSPAPLDPRFRTRLPIARETTAGIAVPAERPNDPVKQTVVPVAPQPSPAPPAQPVTPAVTDPASSTPSFAVTPAIYIPVPQPRPAYPNAPVRVVRVGMKPAAHGYADGVYTGPTADAYYGIIQIQALVQGGQLTALKVLKYPSDRRTSVNINRQALPMLRDEAISAQSADVDIISGATLTSRAFIQSLRGALKKASSLEHHHHHH", "values": [{"measurement": "protein production", "value": "failed"}]}
{"sequence": "MGPMRTLTVAIDWILIILFVISIILLIYALVKKNKKMAKYAGIAAAIIFILLFIAMRFALTVKPGQ", "values": [{"measurement": "protein production", "value": "failed"}]}
{"sequence": "MGPQRRLRPHEPWPTRSQPGSPAAAESSFLPSVSLLSWKLGDSAMSENRKLAAILAADVVGYSRLAGADEDLTLARLRTLRSDLIDPTIAVHHGRVVKRTGDGALVEFRSVVDAVRCAIEVQNGMVERNHGVPQDRRIEFRIGIHLGDVVEESDGDLMGDGVNIASRLEGVAAAGAICLSEDAYRQVKARLDLSVNDLGSTQLKNIAEPIRVYSLQVGSAGTKLAASPETAVSQPATAAPPKLSIAVLPFTNMSGDAEQDYFADGISEDIITALSKLSQLFVIARNSSFTFKGKNVHVQEVGTKLGVRHVLEGSVRKSGNRVRITAQLIDATTGGHLWAERFDRDLTDIFAVQDDVTQQIVGALAVNLTEGDRQRLAPGQTRHPEAYDCFLRGRELWHRLTRQTNSDARDLLQRAVDLDPNFASAHAFLALTHGLDYLNRWSALPQRSLEQAEEVATLAVARDDSDPVAHWALSLVSLYLRQHDRAISEAERAIVLNPNFAEGHVSLGEALIYSGRSGEALAYFDRASVLNPYFPDIVLHFQALALFQLGRYEEAVELLLQRVSRNPVTDVSRALLAACYGHLGRFEEARATWQEVMRVNPDYSLEYRRKVLPFKNPADFELVVEGLRKAGVVQ", "values": [{"measurement": "protein production", "value": "failed"}]}
{"sequence": "MGQKKYVELSKDIFIFSYLCGGINFTDIANLTQENIVNGRLHYIRQKTGKLIKIGIPQEAMQIIKKYTDESNGYLFPILNVKVHKTALQKQNRIHKIRGKVNDILKTLGKRLGIEANITTYVARHSFASVLKKSGVNIALISEALGHSDLATTQIYLDSFDNEQVDEAMKNLLEHHHHHH", "values": [{"measurement": "protein production", "value": "not failed"}]}
{"sequence": "MGQPSDLTESTLRFSSLDPLHPPVISQLTAIAKRIRRNSLHLPTIWQEAVDSIGSTLGVSRCLLLTKDFQSRHLQIEAEFCQPTVTAFAALIVPEESEIWRQLFEQHQPITLYNVQFQGEDLGGLWIFPTLYQDQANGYLCLQQVGPAPGPWHPETEALLQELAEQTGTAIAHATLYQELTQATKAAEEASRLKSEFLASTTHELRTPLNGIIGFLRLILDDMADSEAEKHEFVEEAYQSALLLLNLINDILDLAKIEAGRVGIELEVVDFSEVLQATENFALPQAQNKGLSFNLTAPNQGPLLVYGNQRWLLQVMLNIVGNAIKFTHEGGITVAVEVMPRTVLWEGVQKPGLLKVSVGDTGIGVSLEQQSKLFKKFVQIDGSHSKAYGGTGLGLVISQKLVETMGGKVAFFSMGEGLGSTVTFTVLLEELP", "values": [{"measurement": "protein production", "value": "failed"}]}
{"sequence": "MGQQELAFGGGEFHSLWSCRFGAATLARRGCAFRNALAIMRGFPSALAGVRRTMHTLQQLRSGELAGATRLDLSCGLREFPREIFELADSLEVLNLSGNALDSLPDDLGRLHRLKVLFCSANDFDELPAAVGDCPALSMVGFKSNRIERVPAAALPPALRWLILTDNRIATLPEELGRRPLQKLMLAGNRLEALPESMAACEGLELLRIAANRFQRLPAWLATLPRLAWLAYAGNPLCRLPALADSGIAALDWSELSLDGLIGEGASGVIHRAGWHQPDGSTRTVALKLFKGEVTSDGTPASEMAACLAAGRHAQLIEVLGQLAGHPQGRDGLVLELLDDAYRNLAGPPSLESCTRDVYPPGLRFELATALRLAASLAALMAHLHGRGISHGDFYAHNILWREDGACLLGDFGAASFLPDDAVLAGALRRLEVRAFACLLEELLERSEAPPGQASLSAALVELQRRCALPRVSERPDFGEIQAILRDLAARSQAFPQVR", "values": [{"measurement": "protein production", "value": "failed"}]}
{"sequence": "MGQSIKNNFLLNLSTTITGLLFPLITFPYASRILMADGIGQVQFFQSIIDYVSLCTALGIPLYAVREIARIRDNKELRSRTTIEILLLHAILTLVGYIVVFILAKTVAKIEIDASLFFLLSTTLFFNTIGVAWFYQAIEDFKYITLRSLFVRILSLVALFIFVKTKQDLFYYAGILVIGTVGNNIFNFFRLRKYIKLSKGEFKRLNLLRHLIPALKIFILNLVISIYVNLDSVMLGFLKNEESVGYYAAATRLTKAILGIVSSLGAVLLPRFSNMITNGQKEEFQLLANKAASFTIALSLPMSVGLIFMAAPIIHIFCGNGFEPSILTLKLVAPIVLFIGLSGIIGMQILYPQGREKYVIISTMVGACINLLINYLLIPQYGQYGAALGTVIAEFMVTVIMILLGRKYLPINILSKQNLHYLIGSIVISILLAFLFVFPLHEVNYLLIGILLSVIVYYAYLLMIKDTLALQLKKLLLSIFKQ", "values": [{"measurement": "protein production", "value": "failed"}]}
{"sequence": "MGQSLPLLIRLIVVIWLTISMVTACPRAPTHLNHGRRTRGDNGYKLIVADGPNGYVPGKTYNLLLLGSRTHLKVQHFTHFTITAEAHTGARRPQAASPRRVGRFQLFSDSLTQFNDRCVNTVSEADDLPKTEVQVMWVAPESGSGCVSLSAMVYEGPRAWFADDGNLSTVICERKPDAAAAQKECCACDEAKYSFVFEGIWSNETHPKDYPFAIWLTHFSDVIGASHESNFSFWGENHIATAGFRSLAEWGSPAALETELRANGPKLRTLIKAAGLWYPNVNQNTSSKFRVDRKHPKVSLVSMFGPSPDWVVGISGLDLCTEDCSWKESMDFDLFPWDAGTDSGISYMSPNSETQPPERMYRITTMYPEDPRAPFYNPKSREMTPLAKLYLRREKIVSRNCDDEFLQALQLEVSDDAEEQDTRAECRVGDYSAWSPCSVSCGKGIRMRSRQYLYPAAADQNKCARQLVAKEMCVAAIPECADGPAQSKDRDDDEGENLANSQSLVGSNGEGAGLCKTSPWSVWSECSASCGIGITMRTRTFVNHLGRKRCPHITIVEKNKCMRPDCTYEQVELPDPQCPTSQWSDWSPCSSTCGRGVTIRTRLLLLENGPDKESCTQRMELHQQKECVNPIDCHINAEQAKDICVQAPDPGPCRGTYMRYAYDPQNQHCYSFTYGGCRGNRNNFLTENDCLNTCNVLRSPYSSRVDQPRACVLSDWSVWSPCSVSCGVGVSESRRYVVTEPQNGGQPCSKRLVKSRSCAMPAC", "values": [{"measurement": "protein production", "value": "failed"}]}
{"sequence": "MGQTAFVVKTESYRLLWDCITYLDETTITKIKELGGLDAIALSHPHYYSTQVEWAETFDVPIYIHEDDKEWVMRPSSRIIYWSGESLQLADGITVHRLGGHFSGGSVLHWEEGNDGKGILLTGDIIQVVADERWVSFMYSYPNLIPLPARKVEEMVNRVKPLQFNRLYNAFHRVVKLEHHHHHH", "values": [{"measurement": "protein production", "value": "not failed"}]}
{"sequence": "MGRGRSSSSSSIESSSKSNPFGASSSTRNLSTDLRLGLSFGTSSGTQYFNGGYGYSVAAPAVEDAEYVAAVEEEEENECNSVGSFYVKVNMEGVPIGRKIDLMSLNGYRDLIRTLDFMFNASILWAEEEDMCNEKSHVLTYADKEGDWMMVGDVPWEMFLSTVRRLKISRANYHY", "values": [{"measurement": "protein production", "value": "failed"}]}
{"sequence": "MGRLSVAPLAQLNRLRVRLSLVFVLFLLLVIGLGAFSINRLSAFHNVAAEISGRWLLSNRIAGDLNNSISDFRATEGELLTARRGKDRGRAEGSLAVLDEEIADAKRRYETIEHDPIELDLYRQFSEQWRAYRELANRVLVLSQRDDKTDAIALYYQESRRAFTVANATLATLTERNVTGANEATQAEAVAYRHARDLIVNAIIVAALLMIAGVLYFVTAVTNPIAELVDRMHRISDNETEIDIPSTERPDEVGEIARAVVRFRDNTVALAQSRATLAEQARTLEITLANERRMAELQRNFVSMVSHEFRTPLTVIDGYAQRLSHIKPPLSLEAVQDRSSRIRAAVRRMTALIEDMLGASQVLDLATPGAFQRTEFSLHLLVHEVCEMHRESSPDAQIVEQWHADVPEVFHGDARLLFQAVSNLIGNAVKYSPPKTPVSVDVSMESGAILICVADQGIGIPEKDLGHVFERYVRGANVTGTAGAGVGLYIVRLAAELHGGTVSVRSAEGTGSRFLLRLPEAPAPAPLSA", "values": [{"measurement": "protein production", "value": "failed"}]}
{"sequence": "MGRSAVYTILTTGYVGSTGPGVAATVSYVADGGRHVVFDPGMVASRDHILGPLAELGLGPDDITDVVLSHHHPDNTMNVGLFGRATVHDHKVEYLGDQWRNRDAEGYELTPSLRLIRTPGHSLEDITLLAGTDTGVVAFAGDLWWHSDGPADDPVAPDREVLRASRLRVLAAADLIVPGHGSPLEHHHHHH", "values": [{"measurement": "protein production", "value": "failed"}]}
{"sequence": "MGRVYYGGVERTYLYRGRILNLALEGRYEIVEHKPAVAVIALREGRMLFVRQMRPAVGLAPLEIPAGLIEPGEDPLEAARRELAEETGLSGDLTYLFSYFVSPGFTDEKTHVFLAENLKEVEAHPDEDEAIEVVWMRPEEALERHQRGEVEFSATGLVGVLYYHAFLRGR", "values": [{"measurement": "protein production", "value": "not failed"}]}
{"sequence": "MGRYKDETPAVRVYTVCDESRYMIVRNVPALGCGDDLMRLFMTYGEVEEFAKRKLDESSFLGNRLQISYAPEYENVNDTKDKLESRRKEVLARLNPQKEKSTSQVTKLAGPALTQTDNVSSQRREMEYQFHRGNAPVTRVSSDQEYFASSSMNQTVKTVREKLNKTREENISSLSHCKQIEESGNQKRLQPSSQTQPEESGNQKRLQPSSQIQPDLKRTRVDNRRRI", "values": [{"measurement": "protein production", "value": "failed"}]}
{"sequence": "MGSASSCRRIYIGTEANQYLAEQTLIYSIRKHLSDPSIEIIPLTQTQQRVGGTRFGFVRFTLPQAMGYQGKALYLDADQLALTDLAPIFDLLPDDKAIACVYEAEGLYNGKPHVQTWHTSVMLLDCEQLAWQPDELFATVVPNKQEPKPGQIRYRNFMELQWFEQERIAKLPPSWNHFNIVTPETNIVHFSHVRSQPWKNPRHELTDFWLGYLKEAIAAGYLRRRDVVAAVARGHVHPWTLKAIA", "values": [{"measurement": "protein production", "value": "failed"}]}
{"sequence": "MGSCCSCLNRDSVPDNHPTKFKVTNVDDEGVELGSGVMELTQSELVLHLHRREAVRWPYLCLRRYGYDSNLFSFESGRRCQTGQGIFAFKCSRAEEIFNLLQDLMQCNSINVMEEPVIITRNSHPAELDLPRAPQPPNALGYTVSSFSNGCPGEGPRFSAPRRLSTSSLRHPSLGEESTHALIAPDEQSHTYVNTPASEDDHRRGRHCLQPLPEGQAPFLPQARGPDQRDPQVFLQPGQVKFVLGPTPARRHMVKCQGLCPSLHDPPHHNNNNEAPSECPAQPKCTYENVTGGLWRGAGWRLSPEEPGWNGLAHRRAALLHYENLPPLPPVWESQAQQLGGEAGDDGDSRDGLTPSSNGFPDGEEDETPLQKPTSTRAAIRSHGSFPVPLTRRRGSPRVFNFDFRRPGPEPPRQLNYIQVELKGWGGDRPKGPQNPSSPQAPMPTTHPARSSDSYAVIDLKKTVAMSNLQRALPRDDGTARKTRHNSTDLPL", "values": [{"measurement": "protein production", "value": "not failed"}]}
